Assays:
FGFR1 = FGFR1 (UniProt P11362); experiment: phosphorylation enrichment, bacterial display (enrichment ratio); higher = better substrate or ligand; peptides without Tyr show the background
c-Src = experiment: as above
Fes = Fes (UniProt P07332); experiment: as above
AncSZ = experiment: as above
FGFR3 = FGFR3 (UniProt P22607); experiment: as above
Fyn = Fyn (UniProt P06241); experiment: as above
Fer (mouse) = experiment: as above
EPHB1 = EPHB1 (UniProt P54762); experiment: as above
EPHB2 = EPHB2 (UniProt P29323); experiment: as above
c-Abl (mouse) = experiment: as above
Jak2 = Jak2 (UniProt O60674); experiment: as above
MERTK = MERTK (UniProt Q12866); experiment: as above
Hck = Hck (UniProt P08631); experiment: as above
c-Src SH2 = experiment: SH2 binding enrichment of the phosphorylated peptide, bacterial display (enrichment ratio); higher = better substrate or ligand; peptides without Tyr show the background
SHP2-C SH2 = experiment: as above
Grb2 SH2 = Grb2 SH2 (UniProt P62993); experiment: as above
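Throughout, for SH2 binding enrichment of the phosphorylated peptide, bacterial display: peptide library displayed on the E. coli surface as eCPX fusions, selected cells deep-sequenced, score is each peptide's frequency after selection divided by its frequency in the input.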
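Throughout, for phosphorylation enrichment, bacterial display: 11-residue human phosphosite peptides and single-mutation variants displayed on the E. coli surface, counted by deep sequencing, each peptide's frequency after selection divided by its frequency in the unselected input library; frequency after pTyr selection over input frequency; kinase dosed for 20-30% of maximal phosphorylation in three min.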

Fyn, sequence (P06241 whole entry, looked up): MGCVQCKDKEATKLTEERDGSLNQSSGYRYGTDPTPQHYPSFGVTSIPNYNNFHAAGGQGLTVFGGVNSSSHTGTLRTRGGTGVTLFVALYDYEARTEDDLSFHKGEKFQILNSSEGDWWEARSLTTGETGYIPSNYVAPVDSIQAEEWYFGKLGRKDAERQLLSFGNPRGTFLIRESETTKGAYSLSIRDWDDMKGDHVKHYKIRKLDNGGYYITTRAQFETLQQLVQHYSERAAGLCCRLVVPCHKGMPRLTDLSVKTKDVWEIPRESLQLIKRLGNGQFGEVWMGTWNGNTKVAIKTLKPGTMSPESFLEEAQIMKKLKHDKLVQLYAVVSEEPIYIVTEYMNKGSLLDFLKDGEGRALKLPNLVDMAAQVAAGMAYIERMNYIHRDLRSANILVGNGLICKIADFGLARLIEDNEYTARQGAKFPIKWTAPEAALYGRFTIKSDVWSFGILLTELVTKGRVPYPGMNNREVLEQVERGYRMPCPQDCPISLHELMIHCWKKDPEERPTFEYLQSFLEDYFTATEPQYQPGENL
Fes, sequence (P07332 whole entry, looked up): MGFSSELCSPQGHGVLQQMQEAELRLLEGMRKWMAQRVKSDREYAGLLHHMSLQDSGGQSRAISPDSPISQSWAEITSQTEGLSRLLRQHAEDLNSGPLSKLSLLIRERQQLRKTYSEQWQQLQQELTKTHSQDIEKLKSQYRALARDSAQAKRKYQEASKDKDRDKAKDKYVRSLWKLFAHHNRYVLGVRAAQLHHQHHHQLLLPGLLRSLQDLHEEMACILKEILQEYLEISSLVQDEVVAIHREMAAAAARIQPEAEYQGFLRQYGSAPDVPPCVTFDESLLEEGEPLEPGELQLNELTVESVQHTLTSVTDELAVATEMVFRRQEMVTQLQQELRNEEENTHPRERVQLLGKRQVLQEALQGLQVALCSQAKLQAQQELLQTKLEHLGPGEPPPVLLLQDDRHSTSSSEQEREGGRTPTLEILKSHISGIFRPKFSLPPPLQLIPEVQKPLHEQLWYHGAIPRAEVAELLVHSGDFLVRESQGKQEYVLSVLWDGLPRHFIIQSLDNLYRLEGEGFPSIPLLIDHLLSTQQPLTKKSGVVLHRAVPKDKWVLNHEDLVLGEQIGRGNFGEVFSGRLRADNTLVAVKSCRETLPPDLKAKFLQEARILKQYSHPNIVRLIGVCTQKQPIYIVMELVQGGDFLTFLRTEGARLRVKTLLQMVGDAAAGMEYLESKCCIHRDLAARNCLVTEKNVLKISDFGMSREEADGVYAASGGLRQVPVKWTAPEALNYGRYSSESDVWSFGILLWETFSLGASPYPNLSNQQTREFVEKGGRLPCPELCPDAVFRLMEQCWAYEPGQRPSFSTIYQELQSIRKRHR
EPHB2, sequence (P29323 whole entry, looked up): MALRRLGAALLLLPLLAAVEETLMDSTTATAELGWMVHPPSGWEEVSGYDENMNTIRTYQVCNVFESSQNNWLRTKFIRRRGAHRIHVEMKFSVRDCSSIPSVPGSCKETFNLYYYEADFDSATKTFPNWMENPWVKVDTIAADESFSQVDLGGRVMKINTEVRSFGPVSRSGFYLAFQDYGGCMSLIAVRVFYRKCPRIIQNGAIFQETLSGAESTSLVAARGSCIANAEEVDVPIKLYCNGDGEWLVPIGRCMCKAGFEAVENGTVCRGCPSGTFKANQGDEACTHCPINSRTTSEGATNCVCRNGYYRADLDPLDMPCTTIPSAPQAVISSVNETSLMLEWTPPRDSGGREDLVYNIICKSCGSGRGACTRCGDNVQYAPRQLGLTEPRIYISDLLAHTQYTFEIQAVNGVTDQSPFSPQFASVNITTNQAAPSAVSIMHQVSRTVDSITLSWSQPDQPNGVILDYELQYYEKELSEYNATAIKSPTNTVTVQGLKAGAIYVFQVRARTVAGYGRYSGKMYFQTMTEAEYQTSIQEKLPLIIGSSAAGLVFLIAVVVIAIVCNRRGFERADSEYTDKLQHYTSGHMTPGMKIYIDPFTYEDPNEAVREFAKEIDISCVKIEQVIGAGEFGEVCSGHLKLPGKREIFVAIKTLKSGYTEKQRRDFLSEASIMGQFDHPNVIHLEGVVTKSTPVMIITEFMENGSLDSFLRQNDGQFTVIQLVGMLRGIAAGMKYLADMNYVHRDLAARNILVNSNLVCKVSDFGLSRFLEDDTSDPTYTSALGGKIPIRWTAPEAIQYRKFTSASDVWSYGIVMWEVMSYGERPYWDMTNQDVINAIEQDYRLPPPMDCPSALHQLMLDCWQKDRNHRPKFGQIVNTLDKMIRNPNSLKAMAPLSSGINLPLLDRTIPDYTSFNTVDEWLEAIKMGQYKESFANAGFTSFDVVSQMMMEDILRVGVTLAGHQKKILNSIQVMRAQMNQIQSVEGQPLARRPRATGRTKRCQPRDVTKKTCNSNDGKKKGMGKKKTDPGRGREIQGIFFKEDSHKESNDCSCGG
FGFR3, sequence (P22607 whole entry, looked up): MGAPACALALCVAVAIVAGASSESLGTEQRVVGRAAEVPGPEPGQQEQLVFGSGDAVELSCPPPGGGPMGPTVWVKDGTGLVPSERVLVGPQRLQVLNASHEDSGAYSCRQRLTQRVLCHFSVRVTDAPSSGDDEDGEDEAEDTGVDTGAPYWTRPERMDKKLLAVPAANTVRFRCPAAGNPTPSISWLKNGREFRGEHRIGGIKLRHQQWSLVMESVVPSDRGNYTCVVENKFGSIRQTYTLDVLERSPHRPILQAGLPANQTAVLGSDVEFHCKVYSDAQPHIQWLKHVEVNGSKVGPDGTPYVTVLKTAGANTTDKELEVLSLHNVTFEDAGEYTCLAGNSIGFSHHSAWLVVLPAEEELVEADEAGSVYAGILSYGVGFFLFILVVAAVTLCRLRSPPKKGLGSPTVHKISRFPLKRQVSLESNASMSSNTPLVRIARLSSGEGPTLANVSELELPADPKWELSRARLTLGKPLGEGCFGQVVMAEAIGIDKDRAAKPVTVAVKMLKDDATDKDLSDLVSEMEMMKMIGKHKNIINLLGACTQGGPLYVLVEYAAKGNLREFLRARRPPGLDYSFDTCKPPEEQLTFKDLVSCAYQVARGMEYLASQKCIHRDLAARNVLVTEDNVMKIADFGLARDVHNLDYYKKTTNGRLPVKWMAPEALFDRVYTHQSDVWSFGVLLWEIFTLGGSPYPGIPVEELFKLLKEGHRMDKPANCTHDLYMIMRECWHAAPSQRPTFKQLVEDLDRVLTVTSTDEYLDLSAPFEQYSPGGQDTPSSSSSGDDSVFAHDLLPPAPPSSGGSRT
FGFR1, sequence (P11362 whole entry, looked up): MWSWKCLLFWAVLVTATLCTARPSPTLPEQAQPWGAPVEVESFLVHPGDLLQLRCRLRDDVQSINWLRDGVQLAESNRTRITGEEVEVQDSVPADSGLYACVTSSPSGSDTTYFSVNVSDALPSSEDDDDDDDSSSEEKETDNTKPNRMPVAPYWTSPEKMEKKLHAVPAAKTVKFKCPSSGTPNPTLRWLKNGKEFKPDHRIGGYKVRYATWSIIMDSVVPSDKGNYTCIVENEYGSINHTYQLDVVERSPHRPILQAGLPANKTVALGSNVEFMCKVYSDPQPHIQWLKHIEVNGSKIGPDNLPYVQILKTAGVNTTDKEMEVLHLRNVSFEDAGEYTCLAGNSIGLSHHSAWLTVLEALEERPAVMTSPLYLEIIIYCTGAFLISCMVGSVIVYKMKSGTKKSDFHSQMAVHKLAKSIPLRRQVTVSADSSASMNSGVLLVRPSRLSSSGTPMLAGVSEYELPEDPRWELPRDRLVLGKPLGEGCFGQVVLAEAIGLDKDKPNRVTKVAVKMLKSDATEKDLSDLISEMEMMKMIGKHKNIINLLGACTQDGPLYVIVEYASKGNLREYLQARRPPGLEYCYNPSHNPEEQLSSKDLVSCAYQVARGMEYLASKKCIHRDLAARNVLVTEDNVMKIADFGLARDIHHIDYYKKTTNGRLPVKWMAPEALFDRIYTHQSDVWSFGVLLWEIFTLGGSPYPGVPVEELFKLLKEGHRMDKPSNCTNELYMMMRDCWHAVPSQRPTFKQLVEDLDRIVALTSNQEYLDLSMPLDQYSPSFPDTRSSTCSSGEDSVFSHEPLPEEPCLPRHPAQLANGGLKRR
Hck, sequence (P08631 whole entry, looked up): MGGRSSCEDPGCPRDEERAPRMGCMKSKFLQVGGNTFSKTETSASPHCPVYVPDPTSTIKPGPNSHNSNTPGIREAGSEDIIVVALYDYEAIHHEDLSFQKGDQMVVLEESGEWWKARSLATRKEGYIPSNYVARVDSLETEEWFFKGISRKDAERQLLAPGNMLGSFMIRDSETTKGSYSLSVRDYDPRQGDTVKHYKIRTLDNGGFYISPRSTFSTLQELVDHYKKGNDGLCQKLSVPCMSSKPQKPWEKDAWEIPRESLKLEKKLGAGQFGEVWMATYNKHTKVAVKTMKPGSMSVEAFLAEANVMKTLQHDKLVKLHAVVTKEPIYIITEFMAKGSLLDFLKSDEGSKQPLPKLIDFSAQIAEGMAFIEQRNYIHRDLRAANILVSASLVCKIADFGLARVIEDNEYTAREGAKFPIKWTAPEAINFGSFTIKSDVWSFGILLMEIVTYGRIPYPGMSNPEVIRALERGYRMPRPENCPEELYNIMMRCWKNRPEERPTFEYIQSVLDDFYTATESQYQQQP

| SH2 binding enrichment (c-Src SH2) | SH2 binding enrichment (SHP2-C SH2) | SH2 binding enrichment (Grb2 SH2) | Sequence | phosphorylation enrichment (FGFR1) | phosphorylation enrichment (c-Src) | phosphorylation enrichment (Fes) | phosphorylation enrichment (AncSZ) | phosphorylation enrichment (FGFR3) | phosphorylation enrichment (Fyn) | phosphorylation enrichment (Fer (mouse)) | phosphorylation enrichment (EPHB1) | phosphorylation enrichment (EPHB2) | phosphorylation enrichment (c-Abl (mouse)) | phosphorylation enrichment (Jak2) | phosphorylation enrichment (MERTK) | phosphorylation enrichment (Hck) |
| --- | --- | --- | --- | --- | --- | --- | --- | --- | --- | --- | --- | --- | --- | --- | --- | --- |
| 0.482 | 0.567 | 0.888 | EEGRVYVFHLS [ITGAE_Y549_R552H_YF] | 0.557 | 0.522 | 1.25 | 1.18 | 0.756 | 0.512 | 0.648 | 0.672 | 0.573 | 0.825 | 0.958 | 0.48 | 0.46 |
| 0.665 | 0.806 | 1.05 | EEGRVYVFRLS [ITGAE_Y549_YF] | 0.508 | 0.625 | 1.37 | 1.13 | 0.836 | 0.509 | 0.533 | 0.606 | 0.605 | 0.812 | 1.14 | 0.475 | 0.617 |
| 0.649 | 0.7 | 0.709 | EEHIPCTHMNG [INSR_Y1361_Y1361C] | 0.592 | 0.497 | 0.867 | 0.916 | 0.632 | 0.436 | 0.612 | 0.581 | 0.597 | 0.865 | 1.03 | 0.552 | 0.435 |
| 0.628 | 0.893 | 0.805 | EEKSCYILHSS [PATJ_Y783_E780K] | 0.755 | 0.514 | 1.22 | 1.08 | 0.704 | 0.753 | 0.622 | 0.669 | 0.647 | 0.779 | 0.744 | 0.449 | 0.651 |
| 0.53 | 0.795 | 1.04 | EEQFFYEKAIL [BCCIP_Y257_E254Q] | 0.442 | 0.608 | 0.999 | 1.11 | 0.588 | 0.466 | 3.96 | 0.434 | 0.48 | 0.748 | 0.828 | 0.502 | 0.654 |
| 0.581 | 0.854 | 0.82 | EFENSYIFDIN [GAB1_Y83] | 0.478 | 0.432 | 1.16 | 1.25 | 0.695 | 0.519 | 0.489 | 0.435 | 0.58 | 0.501 | 1.16 | 0.419 | 0.488 |
| 0.657 | 0.634 | 0.705 | EFFDGYWGFSV [ITGA2B_Y265_YF] | 6.3 | 5.54 | 1.15 | 1.43 | 4.7 | 3.98 | 0.54 | 0.633 | 0.58 | 1.53 | 8.01 | 1.14 | 3.31 |
| 0.502 | 0.663 | 0.941 | EFFENYIEELK [PARP4_Y218_F215Y_YF] | 0.488 | 0.501 | 1.35 | 1.3 | 0.744 | 0.421 | 0.532 | 0.617 | 0.669 | 0.869 | 1.41 | 0.425 | 0.533 |
| 1.4 | 0.859 | 0.849 | EFGFRYELVQF [UGGT2_Y1289_Y1285F_YF] | 0.477 | 0.315 | 1.21 | 1.26 | 0.853 | 0.433 | 0.887 | 0.592 | 0.585 | 0.64 | 1.11 | 0.375 | 0.509 |
| 1.39 | 0.501 | 0.566 | EFGFRYELVQY [UGGT2_Y1289_Y1285F] | 0.512 | 0.393 | 1.14 | 1.11 | 0.617 | 0.329 | 0.611 | 0.573 | 0.507 | 0.627 | 1.05 | 0.338 | 0.429 |
| 0.751 | 0.95 | 2.82 | EFQLPYFNMVP [BMPR1A_Y457_YF] | 5 | 2.12 | 1.01 | 1.01 | 3.58 | 0.547 | 0.348 | 0.389 | 0.46 | 0.618 | 7.21 | 0.584 | 0.596 |
| 0.502 | 0.757 | 1.68 | EGLKVYVNGTL [ADGRD1_Y183] | 0.527 | 0.418 | 1.33 | 1.22 | 1.05 | 0.497 | 0.491 | 0.633 | 0.68 | 0.848 | 1.24 | 0.469 | 0.457 |
| 0.522 | 0.794 | 0.759 | EIASHYRHLLR [ZBTB46_Y14_T11A] | 0.416 | 0.421 | 0.585 | 0.597 | 0.528 | 0.428 | 0.516 | 0.357 | 0.42 | 0.415 | 0.703 | 0.421 | 0.573 |
| 0.845 | 1.14 | 1.17 | EILLSYLRTGY [TGM1_Y365] | 0.559 | 0.462 | 1.1 | 1.06 | 0.749 | 0.524 | 0.548 | 0.544 | 0.612 | 0.922 | 1.4 | 0.413 | 0.536 |
| 0.528 | 0.83 | 0.821 | EILLSYPRTGF [TGM1_Y365_L366P_YF] | 0.488 | 0.356 | 0.935 | 0.695 | 0.555 | 0.541 | 0.397 | 0.562 | 0.533 | 0.515 | 0.872 | 0.411 | 0.534 |
| 0.59 | 0.7 | 1.03 | ELELLYLDRNS [NYX_Y284] | 0.493 | 0.515 | 0.904 | 0.934 | 0.634 | 0.494 | 0.408 | 0.518 | 0.519 | 0.573 | 0.761 | 0.347 | 0.551 |
| 0.743 | 1.1 | 1.53 | EMFNPYFGLFE [NEDD4L_Y679_YF] | 1.94 | 7.31 | 1.21 | 1.52 | 1.68 | 7.38 | 2.66 | 2.32 | 1.88 | 1.14 | 8.21 | 3.52 | 6.01 |
| 0.45 | 0.65 | 0.793 | ENELTYYCYKK [CD59_Y86_C89Y] | 1.68 | 5.18 | 1.69 | 1.92 | 1.53 | 4.74 | 0.685 | 0.794 | 0.752 | 6.18 | 2.25 | 1.36 | 4.79 |
| 0.684 | 1.22 | 1.11 | EPSVDYCVVKI [CAD_Y735] | 2.25 | 0.618 | 1.11 | 1.57 | 1.71 | 0.577 | 1.26 | 2.83 | 1.95 | 0.774 | 1.1 | 0.529 | 0.664 |
| 0.512 | 0.593 | 1.06 | EPVSDYINASI [PTPN11_Y304_N308S] | 0.569 | 0.526 | 1.03 | 1.05 | 0.651 | 0.385 | 0.5 | 0.608 | 0.566 | 0.909 | 0.953 | 0.494 | 0.49 |
| 0.731 | 1.04 | 1.16 | EQKKYYNATKK [SCN5A_Y1495_M1498T] | 0.343 | 0.411 | 0.54 | 0.478 | 0.387 | 0.375 | 0.407 | 0.399 | 0.383 | 0.485 | 0.503 | 0.371 | 0.384 |
| 0.42 | 0.553 | 0.794 | EQMLEYMGQLQ [CFAP45_Y289_E291G] | 0.447 | 0.505 | 1.01 | 0.913 | 0.595 | 0.542 | 0.427 | 0.436 | 0.493 | 0.762 | 0.873 | 0.448 | 0.507 |
| 0.644 | 1.28 | 0.951 | ERSMSYCDESR [SMG1_Y143_S144C] | 0.475 | 0.491 | 0.77 | 0.788 | 0.551 | 0.422 | 0.474 | 0.435 | 0.496 | 0.704 | 0.728 | 0.43 | 0.402 |
| 0.707 | 1.24 | 0.95 | ERWLKYFPNEQ [HS3ST5_Y244_I247N] | 0.438 | 0.419 | 1.12 | 1.09 | 0.632 | 0.62 | 0.459 | 0.664 | 0.584 | 0.518 | 0.927 | 0.38 | 0.482 |
| 0.851 | 0.538 | 0.681 | ESMQSYDLDYP [UNC13B_Y243_D238E] | 0.698 | 0.544 | 1.26 | 1.16 | 0.686 | 0.536 | 0.495 | 0.651 | 0.534 | 0.933 | 0.991 | 0.466 | 0.615 |
| 0.479 | 0.598 | 0.822 | ESPGLYGFLNV [BCR_Y910] | 0.527 | 1.23 | 1.1 | 1.09 | 0.646 | 1.48 | 1.23 | 0.586 | 0.574 | 0.717 | 0.922 | 1.05 | 2.24 |
| 0.395 | 0.527 | 0.762 | ESVNTYLQTSP [NAT1_Y208_M205V] | 0.386 | 0.589 | 0.887 | 0.874 | 0.577 | 0.441 | 0.49 | 0.538 | 0.838 | 0.655 | 0.799 | 0.588 | 0.556 |
| 0.498 | 0.651 | 0.881 | EVDETYVPKEF [ALB_Y521] | 0.589 | 0.595 | 1.58 | 1.22 | 0.791 | 0.517 | 0.605 | 0.613 | 0.64 | 0.889 | 1.19 | 0.491 | 0.668 |
| 0.489 | 0.462 | 0.913 | EVEFQYPFRLH [SYP_Y73_E72Q] | 0.475 | 0.506 | 1.23 | 1.03 | 0.709 | 0.445 | 0.524 | 0.64 | 0.498 | 0.885 | 1.1 | 0.443 | 0.473 |
